T1: GST–IRS-58 (1–432) (human, UniProt Q9UQB8 1-432)
T1 sequence (looked up): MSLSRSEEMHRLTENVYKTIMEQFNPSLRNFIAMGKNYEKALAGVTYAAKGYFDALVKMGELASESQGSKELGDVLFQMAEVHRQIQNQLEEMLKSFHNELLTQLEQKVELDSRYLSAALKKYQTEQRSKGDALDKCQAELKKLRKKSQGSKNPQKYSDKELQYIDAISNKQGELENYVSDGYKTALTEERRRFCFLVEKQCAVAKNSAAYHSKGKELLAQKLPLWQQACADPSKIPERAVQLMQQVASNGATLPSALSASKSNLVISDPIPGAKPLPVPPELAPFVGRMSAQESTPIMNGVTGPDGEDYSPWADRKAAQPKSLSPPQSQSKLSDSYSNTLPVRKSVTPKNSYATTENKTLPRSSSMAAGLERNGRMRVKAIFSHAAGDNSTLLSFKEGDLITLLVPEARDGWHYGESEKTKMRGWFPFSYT

T2: GST–IRS-58 (1–358) (human, UniProt Q9UQB8 1-358)
T2 sequence (looked up): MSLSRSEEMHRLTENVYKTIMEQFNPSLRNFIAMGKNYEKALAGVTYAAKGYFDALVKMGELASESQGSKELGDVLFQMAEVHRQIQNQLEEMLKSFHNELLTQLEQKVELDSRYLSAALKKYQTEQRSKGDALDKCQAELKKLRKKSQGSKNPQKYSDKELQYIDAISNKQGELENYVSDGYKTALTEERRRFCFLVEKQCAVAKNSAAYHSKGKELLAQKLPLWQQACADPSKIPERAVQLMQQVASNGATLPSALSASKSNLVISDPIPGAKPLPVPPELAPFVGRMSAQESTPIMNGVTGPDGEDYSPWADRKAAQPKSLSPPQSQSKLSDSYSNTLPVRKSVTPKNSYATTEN

B1: Cdc42HsQ61L (natural protein)
chain: not shown

How the values were obtained:
Test in all cases: far-Western, overlay or dot blot
GST–IRS-58 (1–432) = target: T1, GST–IRS-58 (1–432)
GST–IRS-58 (1–358) = target: T2, GST–IRS-58 (1–358)
Cdc42HsQ61L = target: B1
Cdc42Hs L61C40 = Cdc42Hs L61C40 (human, UniProt P60953-1 1-191, L61 | C40)

Binder	binding result (GST–IRS-58 (1–432))	binding result (GST–IRS-58 (1–358))	binding result (Cdc42HsQ61L)	binding result (Cdc42Hs L61C40)
B1	binds	binds		
IRS-58–GST fusion protein (202–305 amino acid residues) (domain or fragment, human, UniProt Q9UQB8 202-305, looked up) CAVAKNSAAYHSKGKELLAQKLPLWQQACADPSKIPERAVQLMQQVASNGATLPSALSASKSNLVISDPIPGAKPLPVPPELAPFVGRMSAQESTPIMNGVTGP			binds	binds
